The assay addresses T1, human CD73 on the cell surface (MDA-MB-231 and SKOV3 tumor cells) (human, UniProt P21589 27-549).
T1 construct: whole, on cells; also called cell surface CD73; CD73 on the surface of human tumor cells
T1 sequence (looked up): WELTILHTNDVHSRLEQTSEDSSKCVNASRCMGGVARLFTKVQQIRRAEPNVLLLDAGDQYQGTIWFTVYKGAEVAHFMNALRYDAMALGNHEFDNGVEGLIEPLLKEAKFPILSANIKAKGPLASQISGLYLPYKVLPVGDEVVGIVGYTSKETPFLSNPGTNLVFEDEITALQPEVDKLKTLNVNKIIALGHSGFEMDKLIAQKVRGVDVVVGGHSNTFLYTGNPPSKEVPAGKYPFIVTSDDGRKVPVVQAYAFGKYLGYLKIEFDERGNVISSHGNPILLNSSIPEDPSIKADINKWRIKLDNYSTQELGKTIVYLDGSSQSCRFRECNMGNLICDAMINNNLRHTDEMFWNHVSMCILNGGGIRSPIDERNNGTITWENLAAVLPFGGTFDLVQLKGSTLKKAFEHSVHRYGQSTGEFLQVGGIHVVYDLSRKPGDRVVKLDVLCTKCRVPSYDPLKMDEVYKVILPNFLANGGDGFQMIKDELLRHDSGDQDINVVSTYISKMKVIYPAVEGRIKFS
Description: flow cytometry on SK-OV-3 cells. The method, then: In this example, the exemplary antibodies of the present application were compared with anti-CD73 antibodies described in other patent applications. Antibodies MEDI9447 and Hu101-28 (with CDR sequences from PCT patent applications WO 2016/075099 and WO 2018/137598, respectively) were cloned into eukaryotic expression vectors containing the hIgG1-kappa constant region. The binding ability of the humanized antibodies Hab7C3C2.5 and Hab1F2F9.15 to cell surface CD73 was assessed using tumor cell lines MDA-MB-231 and SKOV3 which endogenously express human CD73 on the cell surface. The cells were seeded in a 96-well plate at a density of 2×10⁶ cells/mL, with 100 μL per well. 4-fold gradient dilutions (0-100 nM) of the antibodies were added, and the mixture was incubated at 4° C. for 1 h. A goat anti-human secondary antibody was added, and the mixture was incubated at 4° C. in the dark for 50 min for labeling. The fluorescence intensity of the cells was then measured by a flow cytometer.

B1: Hab7C3C2.5 (antibody, human IgG1, kappa, L234A L235A, V domains shown)
VH: QVQLVQSGAEVKKPGASVKVSCKASGYTFTSYDINWVRQATGQGLEWIGWIYPRDGFTKYNEKFKGRVTLTVNTSISTAYMELSSLRSEDTAVYYCARKEGYRGDWYFDVWGQGTTVTVSS
VL: DIQMTQSPSSLSASVGDRVTITCRASGNVHNYLAWYQQKPGKAPKLLLYNAKTLASGVPSRFSGSGSGTDYTLTISSLQPEDFATYYCQHFWSTPWTFGGGTELEIKR
notes: Humanized 7C3C2; also called Hab7C3C.5
As for B1, a half-maximal response (EC50) required 0.07 nM.

B2: Hab1F2F9.15 (antibody, human IgG1, kappa, L234A L235A, V domains shown)
VH: QVQLVQSGAEVKKPGASVKVSCKASGYTFTSYWMHWVRQAPGQRLEWMGNINPSNGGTKYSQKFQGRVTITVDTSASTAYMELSSLRSEDTAVYYCARRDYGSPSYWGQGTTVTVSS
VL: DIQMTQSPSSLSASVGDRVTITCKASQDINSYLTWFQQKPGKAPKSLIYRTNILLDGVPSRFSGSGSGTDYTLTISSLQPEDFATYYCLQYHEFPVTFGGGTKLEIKR
notes: Humanized 1F2F9; also called Huab1F2F9.15; HuablF2F9.15
As for B2, it took 0.19 nM to reach a half-maximal effect (EC50).

The record behind these values is patent US20260152567A1 (CSPC MEGALITH BIOPHARMACEUTICAL, published 2026).
